Test results: PMC6259754
Values joined by “and” are separate entries in the source; they are usually repeats but may differ in a detail not shown here. Equal values may be shown once.

Legend:
[1] = molecular target: Phaseolus acutifolius agglutinin (lectin from white tepary bean, Phaseolus acutifolius variety latifolius) (Phaseolus acutifolius)
[2] = molecular target: Phaseolus acutifolius agglutinin (lectin from white tepary bean, Phaseolus acutifolius variety latifolius) (Phaseolus acutifolius); assay: SEC
[3] = molecular target: Phaseolus acutifolius agglutinin (lectin from white tepary bean, Phaseolus acutifolius variety latifolius) (Phaseolus acutifolius); assay: SEC; TSK 3000 SW HPLC column in PBS, 0.5 mL/min, 0.1 mg pure lectin; data not shown
[4] = molecular target: Phaseolus acutifolius agglutinin (lectin from white tepary bean, Phaseolus acutifolius variety latifolius) (Phaseolus acutifolius); assay: native gel or EMSA

Molecule: Ovoalbumin (from UniProt P01012 1-386) (natural protein)
- Inhibitory concentration (lowest concentration giving complete inhibition) of hemagglutination of trypsinized human A erythrocytes by PAA [1]: 1.3 mg/mL
- Inhibitory concentration (lowest concentration giving complete inhibition) of hemagglutination of trypsinized human O erythrocytes by PAA [1]: 1.3 mg/mL

Molecule: Phaseolus acutifolius agglutinin (lectin from white tepary bean, Phaseolus acutifolius variety latifolius) (natural protein)
- stoichiometry N [2]: 4 and 2
- stoichiometry N [3]: 2
- stoichiometry N [4]: > 4

Molecule: Porcine thyroglobulin (from UniProt F1RRV3 20-2692) (natural protein)
- Inhibitory concentration (lowest concentration giving complete inhibition) of hemagglutination of trypsinized human A erythrocytes by PAA [1]: 0.0048 mg/mL
- Inhibitory concentration (lowest concentration giving complete inhibition) of hemagglutination of trypsinized human O erythrocytes by PAA [1]: 0.0048 mg/mL

Molecule: Recombinant soluble human β-1,6-N-acetylglucosaminyltransferase V (from UniProt Q09328 1-741) (enzyme)
- Inhibitory concentration (lowest concentration giving complete inhibition) of hemagglutination of trypsinized human A erythrocytes by PAA [1]: 0.0273 mg/mL
- Inhibitory concentration (lowest concentration giving complete inhibition) of hemagglutination of trypsinized human O erythrocytes by PAA [1]: 0.0017 mg/mL

B1: Bovine fibrinogen (complex)
chain 1: GPRLVERQQSACKETGWPFCSDEDWNTKCPSGCRMKGLIDEVDQDFTSRINKLRDSLFNYQKNSKDSNTLTKNIVELMRGDFAKANNNDNTFKQISEDLRSRIEILRRKVIEQVQRIKVLQKNVRDQLVDMKRLEVDIDIKIRSCKGSCSRALEHKVDLEDYKNQQKQLEQVIAINLLPSRDIQYLPLIKMSTITGPVPREFKSQLQEAPLEWKALLEMQQTKMVLETFGGDGHARGDSVSQGTGLAPGSPRKPGTSSIGNVNPGSYGPGSSGTWNPGRPEPGSAGTWNPGRPEPGSAGTWNPGRPEPGSAGTWNPGRPEPGSAGTWNPGRPEPGSAGTWNTGSSGSSSFRPDSSGHGNIRPSSPDWGTFREEGSVSSGTKQEFHTGKLVTTKGDKELLIDNEKVTSGHTTTTRRSCSKVITKTVTNADGRTETTKEVVKSEDGSDCGDADFDWHHTFPSRGNLDDFFHRDKDDFFTRSSHEFDGRTGLAPEFAALGESGSSSSKTSTHSKQFVSSSTTVNRGGSAIESKHFKMEDEAESLEDLGFKGAHGTQKGHTKARPARGIHTSPLGEPSLTP
chain 2: GHRPYDKKKEEAPSLRPVPPPISGGGYRARPATATVGQKKVERKPPDADGCLHADPDLGVLCPTGCKLQDTLVRQERPIRKSIEDLRNTVDSVSRTSSSTFQYITLLKNMWKGRQNQVQDNENVVNEYSSHLEKHQLYIDETVKNNIPTKLRVLRSILENLRSKIQKLESDVSTQMEYCRTPCTVTCNIPVVSGKECEKIIRNEGETSEMYLIQPEDSSKPYRVYCDMKTEKGGWTVIQNRQDGSVDFGRKWDPYKQGFGNIATNAEGKKYCGVPGEYWLGNDRISQLTNMGPTKLLIEMEDWKGDKVTALYEGFTVQNEANKYQLSVSKYKGTAGNALIEGASQLVGENRTMTIHNSMFFSTYDRDNDGWKTTDPRKQCSKEDGGGWWYNRCHAANPNGRYYWGGAYTWDMAKHGTDDGVVWMNWQGSWYSMKKMSMKIRPYFPEQ
chain 3: YVATRDNCCILDERFGSYCPTTCGIADFLNNYQTSVDKDLRTLEGILYQVENKTSEARELVKAIQISYNPDQPSKPNNIESATKNSKSMMEEIMKYETLISTHESTIRFLQEVYNSNSQKIVNLRDKVVQLEANCQEPCQDTVKIHDVTGRDCQDVANKGAKESGLYFIRPLKAKQFLVYCEIDGSGNGWTVFQKRLDGSLDFKKNWIQYKEGFGHLSPTGTGNTEFWLGNEKIHLISTQSSIPYVLRIQLEDWNGRTSTADYASFKVTGENDKYRLTYAYFIGGDAGDAFDGYDFGDDSSDKFFTSHNGMQFSTWDSDNDKYDGNCAEQVGIGWWMNKCHAGHLNGVYYQGGTYSKTSTPNGYDNGIIWATWKSRWYSMKKTTMKIIPLNRLAIGEGQQHQLGGAKQVGVEHHVEIEYD
- Inhibitory concentration (lowest concentration giving complete inhibition) of hemagglutination of trypsinized human A erythrocytes by PAA [1]: 0.0391 mg/mL
- Inhibitory concentration (lowest concentration giving complete inhibition) of hemagglutination of trypsinized human O erythrocytes by PAA [1]: 0.0098 mg/mL

B2: Bovine fetuin (natural protein)
chain: IPLDPVAGYKEPACDDPDTEQAALAAVDYINKHLPRGYKHTLNQIDSVKVWPRRPTGEVYDIEIDTLETTCHVLDPTPLANCSVRQQTQHAVEGDCDIHVLKQDGQFSVLFTKCDSSPDSAEDVRKLCPDCPLLAPLNDSRVVHAVEVALATFNAESNGSYLQLVEISRAQFVPLPVSVSVEFAVAATDCIAKEVVDPTKCNLLAEKQYGFCKGSVIQKALGGEDVRVTCTLFQTQPVIPQPQPDGAEAEAPSAVPDAAGPTPSAAGPPVASVVVGPSVVAVPLPLHRAHYDLRHTFSGVASVESSSGEAFHVGKTPIVGQPSIPGGPVRLCPGRIRYFKI
modifications: glycoprotein with N-linked biantennary and triantennary complex oligosaccharides (sites not given)
- Inhibitory concentration (lowest concentration giving complete inhibition) of hemagglutination of trypsinized human A erythrocytes by PAA [1]: 0.156 mg/mL
- Inhibitory concentration (lowest concentration giving complete inhibition) of hemagglutination of trypsinized human O erythrocytes by PAA [1]: 0.0781 mg/mL
